Results on 4 molecules are retold here after PMC5801815 (Virology Journal, 2018).

In assay [1] the target is SUMO*-DENV-4 NS1 fusion protein (not stated | dengue virus 4 (DENV-4), strain H421) (UniProt Q58HT7). The experiment in a line: SDS-PAGE.
The target in assay [2] is T1, recombinant DENV-4 non-structural protein 1 (unfused commercial DENV-4 rNS1) (Dengue virus 4, strain  …, UniProt P09866). Description: western blot. As to conditions: one partner purified.
Assay [3] concerns the target T2, SUMO*-DENV-4 NS1 fusion protein (Dengue virus 4 strain H241 (printed …, UniProt Q58HT7)).
T2 construct: also called SUMO*-DENV-4 rNS1 fusion protein; SUMO*-NS1 fusion protein
The experiment in a line: ELISA. The note with it: one partner purified. A general note: An ELISA detects its analyte on a solid surface through an enzyme-linked reagent.

For assay [4], the target named is T1, recombinant DENV-4 non-structural …. The experiment in a line: ELISA. The note with it: one partner purified.

T2 sequence (Q58HT7 whole entry, the tested form may be a part): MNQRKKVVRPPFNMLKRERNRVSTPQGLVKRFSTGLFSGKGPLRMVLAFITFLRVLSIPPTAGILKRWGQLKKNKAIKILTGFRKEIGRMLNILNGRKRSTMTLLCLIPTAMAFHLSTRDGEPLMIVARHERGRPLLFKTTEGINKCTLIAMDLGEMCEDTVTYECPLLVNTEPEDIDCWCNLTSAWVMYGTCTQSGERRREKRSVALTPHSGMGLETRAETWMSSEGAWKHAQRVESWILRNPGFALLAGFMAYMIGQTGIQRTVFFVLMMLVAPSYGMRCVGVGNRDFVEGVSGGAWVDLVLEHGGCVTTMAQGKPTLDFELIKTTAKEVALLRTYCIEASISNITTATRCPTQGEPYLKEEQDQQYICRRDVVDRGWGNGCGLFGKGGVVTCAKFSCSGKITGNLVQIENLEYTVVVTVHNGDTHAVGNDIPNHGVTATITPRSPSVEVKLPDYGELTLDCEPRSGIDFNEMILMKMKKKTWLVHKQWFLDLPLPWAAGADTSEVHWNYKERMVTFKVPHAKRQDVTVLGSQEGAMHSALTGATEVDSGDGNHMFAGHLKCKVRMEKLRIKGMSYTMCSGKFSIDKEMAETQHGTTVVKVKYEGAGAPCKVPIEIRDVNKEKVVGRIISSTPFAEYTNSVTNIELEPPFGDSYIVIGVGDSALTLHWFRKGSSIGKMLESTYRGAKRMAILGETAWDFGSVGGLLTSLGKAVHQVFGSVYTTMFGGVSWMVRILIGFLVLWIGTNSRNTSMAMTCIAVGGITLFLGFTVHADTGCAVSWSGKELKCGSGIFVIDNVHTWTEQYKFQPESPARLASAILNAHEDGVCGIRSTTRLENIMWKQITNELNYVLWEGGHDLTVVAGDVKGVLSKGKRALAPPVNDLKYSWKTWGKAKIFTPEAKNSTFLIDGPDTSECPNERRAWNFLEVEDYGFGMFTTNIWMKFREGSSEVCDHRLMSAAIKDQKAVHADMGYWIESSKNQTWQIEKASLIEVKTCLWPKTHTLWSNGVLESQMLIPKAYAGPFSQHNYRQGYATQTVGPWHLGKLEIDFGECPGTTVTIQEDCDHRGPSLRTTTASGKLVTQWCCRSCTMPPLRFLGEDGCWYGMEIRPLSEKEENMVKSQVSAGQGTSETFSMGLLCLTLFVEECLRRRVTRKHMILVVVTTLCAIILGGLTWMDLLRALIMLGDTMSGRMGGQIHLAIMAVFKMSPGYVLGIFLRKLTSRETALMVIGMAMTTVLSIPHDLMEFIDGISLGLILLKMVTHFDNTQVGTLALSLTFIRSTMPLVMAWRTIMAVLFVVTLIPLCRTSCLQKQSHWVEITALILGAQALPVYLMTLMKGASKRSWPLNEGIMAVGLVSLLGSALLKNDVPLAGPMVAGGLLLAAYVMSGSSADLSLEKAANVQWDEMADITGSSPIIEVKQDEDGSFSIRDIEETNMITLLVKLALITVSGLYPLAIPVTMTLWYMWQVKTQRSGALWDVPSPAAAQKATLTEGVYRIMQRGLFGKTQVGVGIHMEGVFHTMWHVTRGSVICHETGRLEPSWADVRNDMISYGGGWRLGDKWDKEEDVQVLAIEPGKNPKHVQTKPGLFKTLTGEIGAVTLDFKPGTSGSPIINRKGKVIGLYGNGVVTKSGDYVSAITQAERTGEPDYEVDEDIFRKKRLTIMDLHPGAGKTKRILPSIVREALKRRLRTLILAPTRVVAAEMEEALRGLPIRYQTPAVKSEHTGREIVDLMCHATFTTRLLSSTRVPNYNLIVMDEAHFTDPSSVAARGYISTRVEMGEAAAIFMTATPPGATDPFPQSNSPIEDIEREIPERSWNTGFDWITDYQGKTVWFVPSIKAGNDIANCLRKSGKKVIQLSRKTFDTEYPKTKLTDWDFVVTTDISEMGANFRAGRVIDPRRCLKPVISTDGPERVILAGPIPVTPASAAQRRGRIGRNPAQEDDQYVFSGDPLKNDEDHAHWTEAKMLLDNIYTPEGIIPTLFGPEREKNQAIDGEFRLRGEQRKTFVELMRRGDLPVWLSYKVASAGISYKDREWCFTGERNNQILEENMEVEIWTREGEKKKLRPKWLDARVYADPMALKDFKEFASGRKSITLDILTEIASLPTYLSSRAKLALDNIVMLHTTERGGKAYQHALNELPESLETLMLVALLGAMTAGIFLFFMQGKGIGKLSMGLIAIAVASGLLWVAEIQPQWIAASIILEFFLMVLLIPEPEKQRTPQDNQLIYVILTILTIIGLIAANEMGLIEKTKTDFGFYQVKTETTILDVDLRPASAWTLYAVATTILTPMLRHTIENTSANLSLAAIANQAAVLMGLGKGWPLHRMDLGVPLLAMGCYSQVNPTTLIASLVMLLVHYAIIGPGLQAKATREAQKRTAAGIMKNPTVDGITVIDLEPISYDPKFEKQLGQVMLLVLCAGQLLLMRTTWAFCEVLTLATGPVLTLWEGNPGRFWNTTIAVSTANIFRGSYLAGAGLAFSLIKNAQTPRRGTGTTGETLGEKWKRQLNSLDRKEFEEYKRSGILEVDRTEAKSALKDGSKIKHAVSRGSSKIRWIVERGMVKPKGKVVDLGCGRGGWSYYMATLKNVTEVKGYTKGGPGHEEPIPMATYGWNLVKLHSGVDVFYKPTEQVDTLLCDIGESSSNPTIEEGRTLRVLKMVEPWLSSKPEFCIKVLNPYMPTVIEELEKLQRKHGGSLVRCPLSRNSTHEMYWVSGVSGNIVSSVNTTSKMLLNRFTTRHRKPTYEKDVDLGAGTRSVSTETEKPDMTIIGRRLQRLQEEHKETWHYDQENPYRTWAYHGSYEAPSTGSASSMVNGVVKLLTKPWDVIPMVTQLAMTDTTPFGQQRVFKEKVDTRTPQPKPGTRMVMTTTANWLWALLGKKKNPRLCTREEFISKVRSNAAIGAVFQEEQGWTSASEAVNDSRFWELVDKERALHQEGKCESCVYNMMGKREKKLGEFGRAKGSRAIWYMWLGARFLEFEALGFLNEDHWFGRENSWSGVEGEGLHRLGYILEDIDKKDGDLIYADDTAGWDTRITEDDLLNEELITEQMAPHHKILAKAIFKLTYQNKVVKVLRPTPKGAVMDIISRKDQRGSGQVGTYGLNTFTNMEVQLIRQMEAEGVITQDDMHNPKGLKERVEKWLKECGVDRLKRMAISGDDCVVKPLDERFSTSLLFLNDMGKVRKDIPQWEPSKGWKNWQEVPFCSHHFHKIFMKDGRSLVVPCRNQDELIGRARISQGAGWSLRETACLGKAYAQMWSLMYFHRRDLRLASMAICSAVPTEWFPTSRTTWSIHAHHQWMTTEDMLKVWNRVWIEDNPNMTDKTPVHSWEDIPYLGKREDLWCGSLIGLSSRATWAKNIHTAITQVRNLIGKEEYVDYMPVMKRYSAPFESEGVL

As for “SUMO*-DENV-4 NS1 fusion protein (from UniProt Q58HT7 775-1126)”, the stoichiometry N – broadly, the number of molecules, sites or subunits per partner or assembly – in assay [1] amounted to 2.

B1: MAb 3H7A9 (antibody, V domains shown)
VH: EVQLQQSGAELVKPGASVKLSCTASGFNIKDTYMHWVKQRPEQGLEWIGRIDPANGNTQYGPKFQGKATITADTSSNTAYLQLSSLTSEDTAVYYCARGGIFYYYGSSYSYAMDYWGQGTSVTVSS
VL: DIQMTQTTSSLSASLGDRVTISCRASQDISNYLNWYQQKPDGTVTLLIYYTSRLHSGVPSRFSGSGSGTDYSLTISNLEQEDIATYFCQQGNTLPRTFGGGTKLEIK
On to B1, for which the binding result in assay [2] and in assay [3] was “binds” each time.

B2: MAb 6D4B10 (antibody, V domains shown)
VH: EVQLQQSGPELVKPGASVKMSCKASGYTFTSYVMHWVKQKPGQGLEWIGYLNPYNDDTKYNEKFKGKATLTSDKSSSTAYMELSSLTSEDSAVYYCAYGPPYALDYWGQGTSVTVSS
VL: QIVLTQSPAIMTASLGERVTMTCTASSSVSSSYLHWYQQKPGSSPKLWIYSTSNLASGVPARFSGSGSGTSYSLTISSMEAEDAATYYCHQYHRSPYTFGGGTKLEIK
notes: also called biotinylated 6D4B10
For B2, the binding result in assay [4] and in assay [3] was “binds” each time.

B3: MAb 8A6F2 (antibody, V domains shown)
VH: DVQLQESGPDLVKPSQSLSLTCTVTGYSITSGYNWHWIRQFPGNKLEWMGYIHYSGGTNYNPSLKSRISITRDTSKNQFFLQLNSVTTEDTATYYCARRTGTVPFAYWGQGTLVTVSA
VL: EIVLTQSPALMAASPGEKVTITCSVSSSISSSNLHWYQQKSETSPKPWIYGTSNLASGVPVRFSGSGSGTSYSLTISSMEAEDAATYYCQQWSSYPLTFGGGTKLEIK
notes: also called biotinylated 8A6F2; 86FA2
In the case of B3, the binding result in assay [3] is “binds”.
